Test results as given in article doi:10.1101/2020.06.01.127969.

Target: RNA polymerase II with SNAP-tagged Rpb1 labelled with SNAP-Surface 549 (Rpb1^SNAP549) (S. cerevisiae) (UniProt P04050)
Test: CoSMoS

UniProt P04050, sequence (P04050 whole entry, looked up): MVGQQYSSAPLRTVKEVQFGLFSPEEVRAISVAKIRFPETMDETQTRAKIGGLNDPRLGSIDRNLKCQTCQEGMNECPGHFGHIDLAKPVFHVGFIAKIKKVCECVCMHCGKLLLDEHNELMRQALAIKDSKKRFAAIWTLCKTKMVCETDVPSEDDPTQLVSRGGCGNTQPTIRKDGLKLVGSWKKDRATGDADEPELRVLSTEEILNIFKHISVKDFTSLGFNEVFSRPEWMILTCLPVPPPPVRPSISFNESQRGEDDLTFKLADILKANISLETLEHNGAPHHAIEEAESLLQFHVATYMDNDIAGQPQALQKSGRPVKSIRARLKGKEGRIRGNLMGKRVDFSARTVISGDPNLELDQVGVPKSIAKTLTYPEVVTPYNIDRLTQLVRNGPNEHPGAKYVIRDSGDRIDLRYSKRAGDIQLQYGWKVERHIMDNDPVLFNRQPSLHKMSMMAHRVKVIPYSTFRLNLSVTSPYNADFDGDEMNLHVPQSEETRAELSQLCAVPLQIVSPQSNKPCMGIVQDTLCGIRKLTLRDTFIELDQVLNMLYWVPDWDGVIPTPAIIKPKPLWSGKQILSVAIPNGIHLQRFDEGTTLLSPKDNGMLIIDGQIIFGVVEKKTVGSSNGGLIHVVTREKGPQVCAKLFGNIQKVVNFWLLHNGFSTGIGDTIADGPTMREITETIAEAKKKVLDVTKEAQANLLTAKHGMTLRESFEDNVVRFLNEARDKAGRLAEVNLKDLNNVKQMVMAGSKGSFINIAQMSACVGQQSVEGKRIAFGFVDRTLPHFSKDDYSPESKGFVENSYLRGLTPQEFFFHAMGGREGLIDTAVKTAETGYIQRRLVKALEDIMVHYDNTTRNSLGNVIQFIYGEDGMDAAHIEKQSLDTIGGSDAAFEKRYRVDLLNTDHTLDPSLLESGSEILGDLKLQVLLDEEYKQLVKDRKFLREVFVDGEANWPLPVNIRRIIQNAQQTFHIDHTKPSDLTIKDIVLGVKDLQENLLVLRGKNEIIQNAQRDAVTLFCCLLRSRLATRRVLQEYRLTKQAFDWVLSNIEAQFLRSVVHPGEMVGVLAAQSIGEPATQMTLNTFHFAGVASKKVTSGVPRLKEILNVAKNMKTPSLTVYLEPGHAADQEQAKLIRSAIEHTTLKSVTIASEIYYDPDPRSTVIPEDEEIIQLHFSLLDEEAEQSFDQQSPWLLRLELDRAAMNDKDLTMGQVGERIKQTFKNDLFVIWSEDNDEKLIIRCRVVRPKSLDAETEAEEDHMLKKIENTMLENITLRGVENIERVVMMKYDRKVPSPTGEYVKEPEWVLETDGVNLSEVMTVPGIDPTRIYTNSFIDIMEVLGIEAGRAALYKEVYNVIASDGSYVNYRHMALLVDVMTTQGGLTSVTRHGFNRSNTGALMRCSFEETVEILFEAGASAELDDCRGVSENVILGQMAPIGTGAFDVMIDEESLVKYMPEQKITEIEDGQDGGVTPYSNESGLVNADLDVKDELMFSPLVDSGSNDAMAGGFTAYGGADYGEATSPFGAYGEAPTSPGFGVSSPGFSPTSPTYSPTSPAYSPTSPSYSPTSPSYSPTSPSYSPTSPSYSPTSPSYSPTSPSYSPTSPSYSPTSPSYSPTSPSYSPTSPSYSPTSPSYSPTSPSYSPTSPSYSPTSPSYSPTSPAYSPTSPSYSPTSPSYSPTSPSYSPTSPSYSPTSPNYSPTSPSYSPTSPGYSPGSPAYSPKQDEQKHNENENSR

1/k-5 (average time to dissociate from elongation complexes): 56 s
frequency of association with a DNA containing Rpb1^SNAP549, with added NTPs: 0.0094 s⁻¹
kapp = k-5 + k6 (aggregate dissociation rate constant, pooled events): 0.021 s⁻¹
kapp,prior (only events in which Spt4/5 left before RNApII): 0.021 s⁻¹
kapp,simul (only events in which Spt4/5 and RNApII left simultaneously): 0.018 s⁻¹
B1: elongation factor Spt4/5 with DHFR-tagged Spt5 labelled with Cy5-TMP (Spt5^DHFR-Cy5) (complex)
chain 1: MSDNSDTNVSMQDHDQQFADPVVVPQSTDTKDENTSDKDTVDSGNVTTTESTERAESTSNIPPLDGEEKEAKSEPQQPEDNAETAATEQVSSSNGPATDDAQATLNTDSSEANEIVKKEEGSDERKRPREEDTKNSDGDTKDEGDNKDEDDDEDDDDDDDDEDDDDEAPTKRRRQERNRFLDIEAEVSDDEDEDEDEEDSELVREGFITHGDDEDDEASAPGARRDDRLHRQLDQDLNKTSEEDAQRLAKELRERYGRSSSKQYRAAAQDGYVPQRFLLPSVDTATIWGVRCRPGKEKELIRKLLKKKFNLDRAMGKKKLKILSIFQRDNYTGRIYIEAPKQSVIEKFCNGVPDIYISQKLLIPVQELPLLLKPNKSDDVALEEGSYVRIKRGIYKGDLAMVDQISENNLEVMLKIVPRLDYGKFDEIDPTTQQRKSRRPTFAHRAPPQLFNPTMALRLDQANLYKRDDRHFTYKNEDYIDGYLYKSFRIQHVETKNIQPTVEELARFGSKEGAVDLTSVSQSIKKAQAAKVTFQPGDRIEVLNGEQRGSKGIVTRTTKDIATIKLNGFTTPLEFPISTLRKIFEPGDHVTVINGEHQGDAGLVLMVEQGQVTFMSTQTSREVTITANNLSKSIDTTATSSEYALHDIVELSAKNVACIIQAGHDIFKVIDETGKVSTITKGSILSKINTARARVSSVDANGNEIKIGDTIVEKVGSRREGQVLYIQTQQIFVVSKKIVENAGVFVVNPSNVEAVASKDNMLSNKMDLSKMNPEIISKMGPPSSKTFQQPIQSRGGREVALGKTVRIRSAGYKGQLGIVKDVNGDKATVELHSKNKHITIDKHKLTYYNREGGEGITYDELVNRRGRVPQARMGPSYVSAPRNMATGGIAAGAAATSSGLSGGMTPGWSSFDGGKTPAVNAHGGSGGGGVSSWGGASTWGGQGNGGASAWGGAGGGASAWGGQGTGATSTWGGASAWGNKSSWGGASTWASGGESNGAMSTWGGTGDRSAYGGASTWGGNNNNKSTRDGGASAWGNQDDGNRSAWNNQGNKSNYGGNSTWGGH
chain 2: MSSERACMLCGIVQTTNEFNRDGCPNCQGIFEEAGVSTMECTSPSFEGLVGMCKPTKSWVAKWLSVDHSIAGMYAIKVDGRLPAEVVELLPHYKPRDGSQVE
modifications: Cy5-trimethoprim (Cy5-TMP) bound non-covalently to the DHFR tag
